The source of these data is patent US20160031999A1 (CSL, published 2016).

Experiment [1] addresses T1, human IL-11Rα on transfected cells (human, UniProt Q14626 23-422).
T1 sequence: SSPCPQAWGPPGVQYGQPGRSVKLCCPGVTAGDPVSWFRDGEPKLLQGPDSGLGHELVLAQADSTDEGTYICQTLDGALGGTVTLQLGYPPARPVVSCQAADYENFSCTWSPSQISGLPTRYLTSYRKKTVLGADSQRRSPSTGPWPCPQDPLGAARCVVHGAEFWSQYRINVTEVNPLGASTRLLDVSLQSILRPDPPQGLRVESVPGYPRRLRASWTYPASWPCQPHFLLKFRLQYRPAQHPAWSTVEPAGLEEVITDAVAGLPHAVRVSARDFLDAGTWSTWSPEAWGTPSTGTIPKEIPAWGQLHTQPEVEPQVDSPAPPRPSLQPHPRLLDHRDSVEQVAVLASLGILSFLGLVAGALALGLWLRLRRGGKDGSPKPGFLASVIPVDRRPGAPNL
Put plainly: cell-based or functional assay.

Experiment [2] deals with T2, human IL-11Rα (form used in the assay not stated) (human, UniProt Q14626 23-363, limits assumed).
T2 construct: also called hIL-11R; hIL-11Rα
T2 sequence: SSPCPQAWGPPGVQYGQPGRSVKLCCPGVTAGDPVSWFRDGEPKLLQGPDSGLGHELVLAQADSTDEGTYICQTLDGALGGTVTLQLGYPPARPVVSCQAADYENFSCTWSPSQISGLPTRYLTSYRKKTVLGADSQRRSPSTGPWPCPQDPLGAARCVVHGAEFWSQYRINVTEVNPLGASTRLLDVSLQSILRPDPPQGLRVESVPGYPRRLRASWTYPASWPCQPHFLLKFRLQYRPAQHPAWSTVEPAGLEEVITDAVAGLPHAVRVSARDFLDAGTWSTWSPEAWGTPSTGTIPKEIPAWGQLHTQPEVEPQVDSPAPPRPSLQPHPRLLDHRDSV
The experiment is described as follows: Biacore, pH 8.5, 37°C.

By IC50 is commonly meant the concentration at which inhibition is half-maximal. By Kd is commonly meant a measure of binding affinity in units of concentration. Low readings indicate tighter binding, high ones weaker binding.

B1: hu8E2-TS-101 (antibody, V domains shown)
VH: EVQLLESGGGLVQPGGSLRLSCAASGFTFSWYSMTWVRQAPGKGLEWVSSIVPWGDLTQYADSVKGRFTISRDNSKNTLYLQMNSLRAEDTAVYYCAKGPGWGSFDLWGRGTLVTVSS
VL: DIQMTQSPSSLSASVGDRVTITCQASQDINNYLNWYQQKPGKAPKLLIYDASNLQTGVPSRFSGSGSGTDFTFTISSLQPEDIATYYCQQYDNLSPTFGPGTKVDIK
B1: in experiment [1], the “Fold increase in potency relative to 8E2” value is 2.1 fold and inhibition was half-maximal at 0.19 µg/mL (IC50). Further, in experiment [2], the dissociation constant (Kd) turned out to be 785 pM.

B2: hu8E2-TS-221 (antibody, V domains shown)
VH: EVQLLESGGGLVQPGGSLRLSCAASGFTFSWYSMTWVRQAPGKGLEWVSSIVPSGGHTQYADSVKGRFTISRDNSKNTLYLQMNSLRAEDTAVYYCAKGPGWGSFWYWGRGTLVTVSS
VL: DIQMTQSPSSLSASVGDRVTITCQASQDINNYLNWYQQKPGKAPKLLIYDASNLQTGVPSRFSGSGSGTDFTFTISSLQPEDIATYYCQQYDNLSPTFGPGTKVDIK
B2: in experiment [1], the “Fold increase in potency relative to 8E2” value came out at 2.6 fold and the 50% inhibitory concentration (IC50) amounted to 0.2 µg/mL. The molecule also registered a dissociation constant Kd in experiment [2] of 634 pM.

B3: hu8E2-TS-133 (antibody, V domains shown)
VH: EVQLLESGGGLVQPGGSLRLSCAASGFTFSWYSMTWVRQAPGKGLEWVSSIVPSGGHTQYADSVKGRFTISRDNSKNTLYLQMNSLRAEDTAVYYCAKPVDWGRFDLWGRGTLVTVSS
VL: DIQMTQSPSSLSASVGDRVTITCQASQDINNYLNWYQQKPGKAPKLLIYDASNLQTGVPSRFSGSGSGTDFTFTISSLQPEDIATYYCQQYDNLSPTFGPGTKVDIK
For B3, in experiment [1], the “Fold increase in potency relative to 8E2” value was found to be 4.1 fold and half-maximal inhibition (IC50) was put at 0.23 µg/mL. The Kd in experiment [2] was 513 pM.

B4: hu8E2-TS-115 (antibody, V domains shown)
VH: EVQLLESGGGLVQPGGSLRLSCAASGFTFSWYSMTWVRQAPGKGLEWVSSIVPHGDLTQYADSVKGRFTISRDNSKNTLYLQMNSLRAEDTAVYYCAKGPGWGSFDLWGRGTLVTVSS
VL: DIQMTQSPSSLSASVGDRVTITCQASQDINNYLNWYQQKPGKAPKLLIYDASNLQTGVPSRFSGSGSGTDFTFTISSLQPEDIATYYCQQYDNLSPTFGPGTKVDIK
Turning to B4, in experiment [1], the “Fold increase in potency relative to 8E2” value was found to be 5.7 fold and the “IC50” value amounted to 0.26 µg/mL. This molecule showed an equilibrium dissociation constant (Kd) in experiment [2] of 735 pM.

B5: hu8E2-TS-303 (antibody, V domains shown)
VH: EVQLLESGGGLVQPGGSLRLSCAASGFTFSWYSMTWVRQAPGKGLEWVSSIVPSGGHTQYADSVKGRFTISRDNSKNTLYLQMNSLRAEDTAVYYCAKGPGWGSFDLWGRGTLVTVSS
VL: DIQMTQSPSSLSASVGDRVTITCQASQDVDYWVEWYQQKPGKAPKLLIYDASNLQTGVPSRFSGSGSGTDFTFTISSLQPEDIATYYCQQYDNLSPTFGPGTKVDIK
For the molecule B5, in experiment [1], the “Fold increase in potency relative to 8E2” value worked out at 1.4 fold and half-maximal inhibition (IC50) required 0.35 µg/mL. In addition, binding in experiment [2] was put at a Kd of 4090 pM.

B6: hu8E2-TS-218 (antibody, V domains shown)
VH: EVQLLESGGGLVQPGGSLRLSCAASGFTFSWYSMTWVRQAPGKGLEWVSSIVPSGGHTQYADSVKGRFTISRDNSKNTLYLQMNSLRAEDTAVYYCAKGPGWGSFWEWGRGTLVTVSS
VL: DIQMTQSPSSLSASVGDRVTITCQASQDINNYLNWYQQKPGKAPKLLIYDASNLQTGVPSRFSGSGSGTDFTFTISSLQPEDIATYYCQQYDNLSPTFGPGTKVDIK
B6: in experiment [1], the “Fold increase in potency relative to 8E2” value was determined as 2.7 fold and the concentration for half-maximal inhibition (IC50) stood at 0.19 µg/mL. Further, the dissociation constant (Kd) in experiment [2] is 1390 pM.

B7: hu8E2-TS-108 (antibody, V domains shown)
VH: EVQLLESGGGLVQPGGSLRLSCAASGFTFSWYSMTWVRQAPGKGLEWVSSIVPWGTLTQYADSVKGRFTISRDNSKNTLYLQMNSLRAEDTAVYYCAKGPGWGSFDLWGRGTLVTVSS
VL: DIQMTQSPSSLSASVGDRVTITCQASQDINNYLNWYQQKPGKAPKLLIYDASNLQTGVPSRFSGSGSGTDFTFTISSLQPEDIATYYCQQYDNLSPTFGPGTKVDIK
For the molecule B7, in experiment [1], the “Fold increase in potency relative to 8E2” value came to 12.7 fold and the concentration for half-maximal inhibition (IC50) was 0.12 µg/mL. Besides, binding in experiment [2] was characterised by a dissociation constant (Kd) of 1930 pM.

B8: hu8E2-TS-151 (antibody, V domains shown)
VH: EVQLLESGGGLVQPGGSLRLSCAASGFTFSWYSMTWVRQAPGKGLEWVSSIVPSGGHTQYADSVKGRFTISRDNSKNTLYLQMNSLRAEDTAVYYCAKPHDWGRFDLWGRGTLVTVSS
VL: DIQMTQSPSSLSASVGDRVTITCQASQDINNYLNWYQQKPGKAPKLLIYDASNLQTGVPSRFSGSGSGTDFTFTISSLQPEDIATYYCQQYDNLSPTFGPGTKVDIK
Take B8: in experiment [1], the “Fold increase in potency relative to 8E2” value is 2.4 fold and the “IC50” value was determined as 0.26 µg/mL. The molecule also registered a Kd in experiment [2] of 242 pM.

B9: hu8E2-TS-107 (antibody, V domains shown)
VH: EVQLLESGGGLVQPGGSLRLSCAASGFTFSWYSMTWVRQAPGKGLEWVSSIVPWGDFTQYADSVKGRFTISRDNSKNTLYLQMNSLRAEDTAVYYCAKGPGWGSFDLWGRGTLVTVSS
VL: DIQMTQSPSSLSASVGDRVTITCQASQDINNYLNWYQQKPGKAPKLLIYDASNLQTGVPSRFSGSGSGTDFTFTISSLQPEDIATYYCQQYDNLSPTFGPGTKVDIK
In the case of B9, in experiment [1], the “Fold increase in potency relative to 8E2” value worked out at 7.4 fold and half-maximal inhibition (IC50) was put at 0.2 µg/mL. This molecule also had a dissociation constant (Kd) in experiment [2] of 1290 pM.

B10: hu8E2-TS-224 (antibody, V domains shown)
VH: EVQLLESGGGLVQPGGSLRLSCAASGFTFSWYSMTWVRQAPGKGLEWVSSIVPSGGHTQYADSVKGRFTISRDNSKNTLYLQMNSLRAEDTAVYYCAKGPGWGSFWTWGRGTLVTVSS
VL: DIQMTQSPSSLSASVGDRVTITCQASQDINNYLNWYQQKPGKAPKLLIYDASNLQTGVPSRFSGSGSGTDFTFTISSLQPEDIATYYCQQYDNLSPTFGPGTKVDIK
With B10, in experiment [1], the “Fold increase in potency relative to 8E2” value worked out at 1.2 fold and the midpoint of inhibition, the IC50, lay at 0.39 µg/mL. The molecule also came in with a Kd in experiment [2] of 1910 pM.

B11: hu8E2-TS-135 (antibody, V domains shown)
VH: EVQLLESGGGLVQPGGSLRLSCAASGFTFSWYSMTWVRQAPGKGLEWVSSIVPSGGHTQYADSVKGRFTISRDNSKNTLYLQMNSLRAEDTAVYYCAKPLDWGLFDLWGRGTLVTVSS
VL: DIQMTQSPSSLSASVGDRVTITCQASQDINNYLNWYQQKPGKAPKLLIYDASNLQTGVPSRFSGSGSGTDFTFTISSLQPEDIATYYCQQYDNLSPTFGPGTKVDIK
As for B11, in experiment [1], the “Fold increase in potency relative to 8E2” value worked out at 4.8 fold and it took 0.2 µg/mL to reach half-maximal inhibition (IC50). Besides, the Kd in experiment [2] was 525 pM.

B12: hu8E2-TS-156 (antibody, V domains shown)
VH: EVQLLESGGGLVQPGGSLRLSCAASGFTFSWYSMTWVRQAPGKGLEWVSSIVPSGGHTQYADSVKGRFTISRDNSKNTLYLQMNSLRAEDTAVYYCAKPEDWGRFDLWGRGTLVTVSS
VL: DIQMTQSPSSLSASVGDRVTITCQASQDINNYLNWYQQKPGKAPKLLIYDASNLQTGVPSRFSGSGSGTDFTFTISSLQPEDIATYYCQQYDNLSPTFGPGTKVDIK
Consider B12, for which, in experiment [1], the “Fold increase in potency relative to 8E2” value was determined as 4.9 fold and the concentration for half-maximal inhibition (IC50) amounted to 0.13 µg/mL. The same molecule came in with a Kd in experiment [2] of 631 pM.

B13: hu8E2-TS-136 (antibody, V domains shown)
VH: EVQLLESGGGLVQPGGSLRLSCAASGFTFSWYSMTWVRQAPGKGLEWVSSIVPSGGHTQYADSVKGRFTISRDNSKNTLYLQMNSLRAEDTAVYYCAKPLDWGRFDLWGRGTLVTVSS
VL: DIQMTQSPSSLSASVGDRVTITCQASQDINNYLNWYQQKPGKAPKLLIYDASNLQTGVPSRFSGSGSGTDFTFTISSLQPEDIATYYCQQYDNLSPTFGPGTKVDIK
Turning to B13, in experiment [1], the “Fold increase in potency relative to 8E2” value was determined as 6 fold and the “IC50” value came to 0.16 µg/mL. Besides, binding in experiment [2] was put at a Kd of 232 pM.

B14: hu8E2-TS-104 (antibody, V domains shown)
VH: EVQLLESGGGLVQPGGSLRLSCAASGFTFSWYSMTWVRQAPGKGLEWVSSIVPWGTITQYADSVKGRFTISRDNSKNTLYLQMNSLRAEDTAVYYCAKGPGWGSFDLWGRGTLVTVSS
VL: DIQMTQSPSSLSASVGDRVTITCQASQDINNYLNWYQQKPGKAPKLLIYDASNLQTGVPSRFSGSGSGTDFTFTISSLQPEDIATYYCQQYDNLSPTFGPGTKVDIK
B14: in experiment [1], the “Fold increase in potency relative to 8E2” value turned out to be 5.2 fold and the “IC50” value turned out to be 0.28 µg/mL. The molecule also gave a Kd in experiment [2] of 995 pM.

B15: hu8E2-TS-140 (antibody, V domains shown)
VH: EVQLLESGGGLVQPGGSLRLSCAASGFTFSWYSMTWVRQAPGKGLEWVSSIVPSGGHTQYADSVKGRFTISRDNSKNTLYLQMNSLRAEDTAVYYCAKPNDWGLFDLWGRGTLVTVSS
VL: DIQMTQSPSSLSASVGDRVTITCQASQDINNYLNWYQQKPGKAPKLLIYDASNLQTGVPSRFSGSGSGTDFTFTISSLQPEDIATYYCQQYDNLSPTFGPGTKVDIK
As to B15, in experiment [1], the “Fold increase in potency relative to 8E2” value is 1.5 fold and the half-inhibitory concentration (IC50) is 0.42 µg/mL. This molecule registered a Kd in experiment [2] of 471 pM.

B16: hu8E2-TS-214 (antibody, V domains shown)
VH: EVQLLESGGGLVQPGGSLRLSCAASGFTFSWYSMTWVRQAPGKGLEWVSSIVPSGGHTQYADSVKGRFTISRDNSKNTLYLQMNSLRAEDTAVYYCAKGPGWGSFWFWGRGTLVTVSS
VL: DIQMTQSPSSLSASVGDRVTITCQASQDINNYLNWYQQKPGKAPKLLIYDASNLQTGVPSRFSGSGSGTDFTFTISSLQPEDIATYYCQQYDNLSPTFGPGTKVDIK
Take B16: in experiment [1], the “Fold increase in potency relative to 8E2” value was 1.6 fold and half-maximal inhibition (IC50) required 0.31 µg/mL. In experiment [2], this molecule displayed a Kd of 1110 pM.

B17: hu8E2-TS-222 (antibody, V domains shown)
VH: EVQLLESGGGLVQPGGSLRLSCAASGFTFSWYSMTWVRQAPGKGLEWVSSIVPSGGHTQYADSVKGRFTISRDNSKNTLYLQMNSLRAEDTAVYYCAKGPGWGTFAYWGRGTLVTVSS
VL: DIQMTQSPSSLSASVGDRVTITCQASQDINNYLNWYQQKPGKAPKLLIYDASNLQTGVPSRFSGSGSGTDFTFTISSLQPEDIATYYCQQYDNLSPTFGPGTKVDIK
As to B17, in experiment [1], the “Fold increase in potency relative to 8E2” value is 3.3 fold and half-maximal inhibition (IC50) was put at 0.16 µg/mL. In addition, the Kd in experiment [2] is 1910 pM.

B18: hu8E2-TS-134 (antibody, V domains shown)
VH: EVQLLESGGGLVQPGGSLRLSCAASGFTFSWYSMTWVRQAPGKGLEWVSSIVPSGGHTQYADSVKGRFTISRDNSKNTLYLQMNSLRAEDTAVYYCAKPEDWGLFDLWGRGTLVTVSS
VL: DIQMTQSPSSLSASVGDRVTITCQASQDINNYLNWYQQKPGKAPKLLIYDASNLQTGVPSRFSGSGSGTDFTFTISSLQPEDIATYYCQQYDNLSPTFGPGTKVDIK
Consider B18, for which, in experiment [1], the “Fold increase in potency relative to 8E2” value came out at 4.3 fold and the half-inhibitory concentration (IC50) is 0.22 µg/mL. Also, binding in experiment [2] was put at a Kd of 520 pM.

B19: hu8E2-TS-129 (antibody, V domains shown)
VH: EVQLLESGGGLVQPGGSLRLSCAASGFTFSWYSMTWVRQAPGKGLEWVSSIVPSGGHTQYADSVKGRFTISRDNSKNTLYLQMNSLRAEDTAVYYCAKPEDWGMFDLWGRGTLVTVSS
VL: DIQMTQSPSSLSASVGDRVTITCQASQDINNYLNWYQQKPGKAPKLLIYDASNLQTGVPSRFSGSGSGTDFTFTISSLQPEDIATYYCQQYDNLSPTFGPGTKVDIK
As for B19, in experiment [1], the “Fold increase in potency relative to 8E2” value was determined as 4.7 fold and the half-inhibitory concentration (IC50) was 0.2 µg/mL. For the same molecule, binding in experiment [2] was put at a Kd of 630 pM.

B20: hu8E2-TS-143 (antibody, V domains shown)
VH: EVQLLESGGGLVQPGGSLRLSCAASGFTFSWYSMTWVRQAPGKGLEWVSSIVPSGGHTQYADSVKGRFTISRDNSKNTLYLQMNSLRAEDTAVYYCAKPHDWGLFDLWGRGTLVTVSS
VL: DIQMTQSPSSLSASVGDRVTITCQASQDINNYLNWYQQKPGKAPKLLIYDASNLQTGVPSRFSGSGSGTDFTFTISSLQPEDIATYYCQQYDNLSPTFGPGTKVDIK
Turning to B20, in experiment [1], the “Fold increase in potency relative to 8E2” value worked out at 1.6 fold and the half-inhibitory concentration (IC50) worked out at 0.39 µg/mL. This molecule registered a Kd in experiment [2] of 416 pM.

B21: hu8E2-TS-103 (antibody, V domains shown)
VH: EVQLLESGGGLVQPGGSLRLSCAASGFTFSWYSMTWVRQAPGKGLEWVSSIVPYGDLTQYADSVKGRFTISRDNSKNTLYLQMNSLRAEDTAVYYCAKGPGWGSFDLWGRGTLVTVSS
VL: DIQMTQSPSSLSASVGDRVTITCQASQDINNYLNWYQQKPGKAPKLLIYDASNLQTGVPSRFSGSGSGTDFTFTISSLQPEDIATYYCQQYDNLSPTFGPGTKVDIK
With B21, in experiment [1], the “Fold increase in potency relative to 8E2” value was 4.5 fold and the concentration for half-maximal inhibition (IC50) is 0.33 µg/mL. Besides, the equilibrium dissociation constant (Kd) in experiment [2] was determined as 497 pM.

B22: hu8E2-TS-215 (antibody, V domains shown)
VH: EVQLLESGGGLVQPGGSLRLSCAASGFTFSWYSMTWVRQAPGKGLEWVSSIVPSGGHTQYADSVKGRFTISRDNSKNTLYLQMNSLRAEDTAVYYCAKGPGWGSFWQWGRGTLVTVSS
VL: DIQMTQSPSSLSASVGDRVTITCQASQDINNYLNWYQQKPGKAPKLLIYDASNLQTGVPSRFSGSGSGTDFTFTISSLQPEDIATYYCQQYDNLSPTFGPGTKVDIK
In the case of B22, in experiment [1], the “Fold increase in potency relative to 8E2” value was 1.5 fold and the midpoint of inhibition, the IC50, lay at 0.34 µg/mL. In experiment [2], the dissociation constant Kd worked out at 1850 pM.
